# Laboratory results taken from US20230220078A1 (NAVI BIO THERAPEUTICS, published 2023).
# T1: PVRL4_864 (94-957, 864 bps, r864p) recombinant fragment of Nectin-4 (PVRL4_HUMAN) (human, UniProt Q96NY8 32-319)
# T1 construct: His-tagged and purified on Ni-sepharose from a 6M urea lysate; also called his-PVRL4_864
# T1 sequence (looked up): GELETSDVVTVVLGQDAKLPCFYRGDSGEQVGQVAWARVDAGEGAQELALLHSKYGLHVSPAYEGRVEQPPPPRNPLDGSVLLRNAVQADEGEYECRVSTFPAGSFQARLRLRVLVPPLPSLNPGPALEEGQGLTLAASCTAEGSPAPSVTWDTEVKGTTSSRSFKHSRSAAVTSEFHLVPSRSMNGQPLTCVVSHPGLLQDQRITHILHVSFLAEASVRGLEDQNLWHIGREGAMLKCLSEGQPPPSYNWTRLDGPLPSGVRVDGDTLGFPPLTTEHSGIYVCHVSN
# Assays:
# [1] = biological target: T1, PVRL4_864 (94-957, 864 bps, r864p) …; test: competitive ELISA of purified scFv on r864p
# [2] = biological target: T1, PVRL4_864 (94-957, 864 bps, r864p) …; test: ELISA titration of purified scFv on PVRL4 864
# [3] = biological target: T1, PVRL4_864 (94-957, 864 bps, r864p) …; test: competitive ELISA of purified scFv on r864p; competitive ELISA, purified scFv S21 on r864p
Binder,50% concentration [1] [µg/mL],Kd [1] [nM],concentration of scFv at OD450 nm value of 1 [2] [µg/mL],Kd [3] [nM]
"NECTIN4-scFv-S6 (scFv, V domains shown, Chicken-derived scFv, tested as purified scFv) VH: TVTLDESGGGLQTPGGGLSLVCKGSGFTFSSNGMAWVRQAPGKGLEFVAGVNAAGSWTGYGAAVKGRATISRDNGQSTVRLQLNDLRAEDTGTYYCAKTADDWYGADDIDAWGHGTEVIVSS VL: ALTQPSSVSTNLGETVEITCSGSSGYGYGWYQQKSPGSAPVTVIYSNDKRPSDIPSRFSGSASGSTATLTITGVRAEDEAVYLCGGYDSSASYVGIFGAGTTLTVL",34.9,942,0.31,–
"NECTIN4-scFv-S21 (scFv, V domains shown, Chicken-derived scFv from a pComb3X phage library, tested as purified scFv; also called anti-PVRL4 scFv S21; NECTIN4-scFv-521) VH: AVTLDESGGGLQTPGGALSLVCKASGFTFSSYAMMWVRQAPGKGLEYIAGIRSDGRYTYYGAAVKGRATISRDNGQSTVRLQLNNLRAEDTGTYYCAKSGVTDTSSSTYSSASNIDAWGHGTEVIVSS VL: ALTQPSSVSANLGGTVKITCSGGSGSYGWYQQKSPGSAPVTLIYANTNRPSDIPSRFSGSKSGSTSTLTITGVQAEDVAVYYCGSRDSSYVGIFGAGTTLTVL",52.5,–,0.02,1410
"NECTIN4-scFv-L1 (scFv, V domains shown, Chicken-derived scFv, tested as purified scFv) VH: AVTLDESGGGLQAPGGGLSLVCRASGFTFSSHGMFWVRQAPGKGLEFVAGISDAGSWTGYGAAVKGRATISRDSGQSTVRLQLNNLRAEDTGIYYCAKSAGDWYGADDIDAWGHGTEVIVSS VL: ALTQPSSVSANPGETVKITCSGGSSNYYGWYQQKSPGSAPVTLIYNNNKRPSDIPSRFSASKSGSTHTLTITGVRAEDEAVYFCGGWDKSAGIFGAGTTLTVL",34.7,939,0.04,–
